B1: h6E6-002 (antibody, V domains shown)
VH: EVQLVESGGGLVKPGGSLRLSCAASGFTFSSYGISWVRQAPGKGLEWVSTISSGGGYTHYAESVKGRFTISRDNAKNSLYLQMNSLRAEDTAVYYCARHPRDFSYAMDYWGQGTTVTVSS
VL: EIVMTQSPATLSVSPGERATLSCRASQDVGHYLAWYQQKPGQAPRLLIYWASTRHTGIPARFSGSGSGTEFTLTISSLQSEDFAVYYCQQYNIYPWTFGQGTKVEIK
notes: also called clone 2
B2: h6E6-078 (antibody, V domains shown)
VH: B1 VH with S31A, I34S, E62P
VL: B1 VL with R24K, L33V, H55A
notes: also called clone 78
B3: h6E6-014 (antibody, V domains shown)
VH: B1 VH with I34M, S35N, A61V, E62D, M107T
VL: B1 VL with L33V
notes: also called clone 14
B4: h6E6-032 (antibody, V domains shown)
VH: B1 VH with S31N, I34T
VL: B1 VL with R24K, H55A
notes: also called clone 32
B5: h6E6-064 (antibody, V domains shown)
VH: B1 VH with S31H, T50S
VL: B1 VL with L33V, H55A
notes: also called clone 64
B6: h6E6-003 (antibody, V domains shown)
VH: B1 VH with S31Q, I34T, M107H
VL: B1 VL
notes: also called clone 3
B7: h6E6-031 (antibody, V domains shown)
VH: B1 VH with I34M, A75D, M107I
VL: B1 VL with L33V
notes: also called clone 31
B8: h6E6-051 (antibody, V domains shown)
VH: B1 VH with S31N, I34M, A61V, E62D, M107L
VL: B1 VL with R24K, L33V, H55A
notes: also called clone 51
B9: h6E6-052 (antibody, V domains shown)
VH: B1 VH with S31H, I34T, M107I
VL: B1 VL with R24K, H55A
notes: also called clone 52
B10: h6E6-069 (antibody, V domains shown)
VH: B1 VH with S31K, I34V, A61V
VL: B1 VL with R24K, H55A
notes: also called clone 69
B11: h6E6-071 (antibody, V domains shown)
VH: B1 VH with S31H, I34M, M107F
VL: B1 VL with R24K
notes: also called clone 71
B12: h6E6-097 (antibody, V domains shown)
VH: B1 VH with S31A, I34M, A61V
VL: B1 VL with R24K, L33V, H55A
notes: also called clone 97
B13: h6E6-084 (antibody, V domains shown)
VH: B1 VH with S31Q, I34M, A61V, E62Q, M107Q
VL: B1 VL with R24K, H55A
notes: also called clone 84
B14: h6E6-030 (antibody, V domains shown)
VH: B1 VH with I34M, E62A
VL: B1 VL with R24K, H55A
notes: also called clone 30
B15: h6E6-049 (antibody, V domains shown)
VH: B1 VH with S31N, I34M, T50S
VL: B1 VL with R24K, L33V, H55A
notes: also called clone 49
B16: h6E6-006 (antibody, V domains shown)
VH: B1 VH with S31T, I34M, E62T, M107H
VL: B1 VL with H55A
notes: also called clone 6
B17: h6E6-022 (antibody, V domains shown)
VH: B1 VH with S31K, I34T, E62P
VL: B1 VL with R24K, L33V, H55A
notes: also called clone 22
B18: h6E6-012 (antibody, V domains shown)
VH: B1 VH with S31A, I34A, T50S, A61V, M107Q
VL: B1 VL with H55A
notes: also called clone 12
B19: h6E6-038 (antibody, V domains shown)
VH: B1 VH with S31R, I34M, E62P, L86P, M107Q
VL: B1 VL with R24K
notes: also called clone 38
B20: h6E6-005 (antibody, V domains shown)
VH: B1 VH with S31G, I34L, E62A
VL: B1 VL with R24K, L33V, H55A
notes: also called clone 5
B21: h6E6-025 (antibody, V domains shown)
VH: B1 VH with S31H, I34H, A61V
VL: B1 VL with L33V, H55A
notes: also called clone 25
B22: h6E6-009 (antibody, V domains shown)
VH: B1 VH with S31G, I34M, S35N, M107A
VL: B1 VL with R24K, H55A
notes: also called clone 9
B23: h6E6-045 (antibody, V domains shown)
VH: B1 VH with S31G, I34M, A61V, E62Q
VL: B1 VL with R24K, L33V, H55A
notes: also called clone 45
B24: h6E6-046 (antibody, V domains shown)
VH: B1 VH with S31R, E62T
VL: B1 VL with R24K, L33V
notes: also called clone 46
B25: h6E6-090 (antibody, V domains shown)
VH: B1 VH with S31T, I34T, E62P, M107L
VL: B1 VL with R24K
notes: also called clone 90
B26: h6E6-016 (antibody, V domains shown)
VH: B1 VH with S31A, I34M, E62T, M107Q
VL: B1 VL with R24K, L33V
notes: also called clone 16
B27: h6E6-106 (antibody, V domains shown)
VH: B1 VH with H59Y, A61V, E62D, M107L
VL: B1 VL with R24K, L33V, H55A
notes: also called clone 106
B28: h6E6-081 (antibody, V domains shown)
VH: B1 VH with I34M, S35N, E62D, M107Q
VL: B1 VL with L33V
notes: also called clone 81
B29: h6E6-033 (antibody, V domains shown)
VH: B1 VH with S31T, I34M, A61V, E62T
VL: B1 VL with R24K, L33V
notes: also called clone 33
B30: h6E6-015 (antibody, V domains shown)
VH: B1 VH with S31N, I34L, A61V, E62T, M107L
VL: B1 VL with R24K, L33V
notes: also called clone 15
B31: h6E6-050 (antibody, V domains shown)
VH: B1 VH with S31R, I34M, A61V, E62D, M107H
VL: B1 VL with R24K, H55A
notes: also called clone 50
B32: h6E6-017 (antibody, V domains shown)
VH: B1 VH with S31R, I34M, T50S
VL: B1 VL with R24K
notes: also called clone 17
B33: h6E6-020 (antibody, V domains shown)
VH: B1 VH with S31K, I34V, E62P
VL: B1 VL with R24K, H55A
notes: also called clone 20
B34: h6E6-109 (antibody, V domains shown)
VH: B1 VH with S31N, I34T, A61V, E62T
VL: B1 VL with R24K, L33V, H55A
notes: also called clone 109
B35: h6E6-076 (antibody, V domains shown)
VH: B1 VH with S31G, I34M, A61V, M107L
VL: B1 VL with R24K, H55A
notes: also called clone 76
B36: h6E6-054 (antibody, V domains shown)
VH: B1 VH with S31N, I34V, A61V, E62T, M107L
VL: B1 VL with R24K, L33V, H55A
notes: also called clone 54
B37: h6E6-099 (antibody, V domains shown)
VH: B1 VH with S31N, I34M, S35N, E62P
VL: B1 VL with R24K, L33V, H55A
notes: also called clone 99
B38: h6E6-062 (antibody, V domains shown)
VH: B1 VH with I34H, H59Y, M107H
VL: B1 VL with R24K, H55A
notes: also called clone 62
B39: h6E6-023 (antibody, V domains shown)
VH: B1 VH with I34M, E62P, M107L
VL: B1 VL with R24K, H55A
notes: also called clone 23
B40: h6E6-089 (antibody, V domains shown)
VH: B1 VH with S31D, A61V, E62Q
VL: B1 VL with R24K, H55A
notes: also called clone 89
B41: h6E6-026 (antibody, V domains shown)
VH: B1 VH with S31R, I34M, E62A
VL: B1 VL with R24K, L33V
notes: also called clone 26
B42: h6E6-010 (antibody, V domains shown)
VH: B1 VH with S31N, I34M, A61V, E62A
VL: B1 VL with R24K, H55A
notes: also called clone 10
B43: h6E6-047 (antibody, V domains shown)
VH: B1 VH with S31K, I34M, L45P, E62T, M107L
VL: B1 VL with L33V, H55A
notes: also called clone 47
B44: h6E6-024 (antibody, V domains shown)
VH: B1 VH with S31E, I34M, A61V
VL: B1 VL with L33V, H55A
notes: also called clone 24
B45: h6E6-082 (antibody, V domains shown)
VH: B1 VH with S31K, I34M, E62D
VL: B1 VL with R24K
notes: also called clone 82

Substitutions are numbered along the chain they refer to.

Chain of human ROR2 (Q01974 34-403 limits assumed): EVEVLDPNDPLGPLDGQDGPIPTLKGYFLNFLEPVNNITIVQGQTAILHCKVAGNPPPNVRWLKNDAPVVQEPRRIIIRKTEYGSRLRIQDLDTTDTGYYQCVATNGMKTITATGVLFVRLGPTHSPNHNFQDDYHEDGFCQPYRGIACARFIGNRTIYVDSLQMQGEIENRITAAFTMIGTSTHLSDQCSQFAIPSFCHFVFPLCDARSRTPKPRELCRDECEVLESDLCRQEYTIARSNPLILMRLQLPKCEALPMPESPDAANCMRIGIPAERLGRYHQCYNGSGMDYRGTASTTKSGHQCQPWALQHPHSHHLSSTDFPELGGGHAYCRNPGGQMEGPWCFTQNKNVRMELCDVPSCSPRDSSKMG

The target in the assay is human ROR2 (human, UniProt Q01974 34-403, limits assumed). The experiment in a line: SPR. Summed up:
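Using surface plasmon resonance, the dissociation constant (Kd, nM) was determined for binding of humanized anti-human ROR2 monoclonal antibodies to human ROR2. These antibodies carry murine complementarity-determining regions in human acceptor frameworks and a human IgG1 constant region. No antigen format, concentrations, temperature, buffer or replicate count is stated.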
On the technique in general: In SPR one partner is held on a chip, and binding of the other changes the refractive index at the surface.
The term Kd denotes the constant that tells how readily two partners part at equilibrium. B1 gave a Kd of 284 pM.
Then B2, with 476 pM.
B3 came in with a Kd of 57 pM.
Turning to B4, the affinity, expressed as Kd, was 479 pM.
B5: the Kd turned out to be 5800 pM.
The molecule B6 registered a Kd of 321 pM.
Molecule B7 had a dissociation constant (Kd) of 103 pM.
In turn, B8 yielded a Kd of 160 pM.
In turn, B9 yielded a Kd of 533 pM.
As for B10, the figure is 407 pM.
Then B11, with 582 pM.
Then B12, with 96 pM.
The molecule B13 displayed a Kd of 108 pM.
As for B14, the figure is 221 pM.
The molecule B15 gave a Kd of 1400 pM.
The molecule B16 registered a Kd of 166 pM.
Then B17, with 271 pM; and B18, with 1400 pM.
Molecule B19 had a Kd of 147 pM.
Molecule B20 displayed a Kd of 476 pM.
The molecule B21 showed a Kd of 509 pM.
As for B22, the figure is 215 pM; as for B23, 134 pM.
As for B24, the figure is 527 pM; as for B25, 178 pM; as for B26, 37 pM.
Molecule B27 yielded a Kd of 642 pM.
As for B28, the figure is 62 pM.
For the molecule B29, the Kd worked out at 144 pM.
As for B30, the figure is 386 pM.
With B31, the dissociation constant Kd is 482 pM.
As to B32, the Kd came to 4000 pM.
As to B33, the Kd amounted to 629 pM.
B34 registered a Kd of 151 pM.
In turn, B35 showed a Kd of 203 pM.
Consider B36, for which the Kd stood at 178 pM.
B37 registered a dissociation constant (Kd) of 286 pM.
The molecule B38 had a Kd of 839 pM.
Then B39, with 200 pM; and B40, with 2200 pM.
In turn, B41 showed a Kd of 335 pM.
As for B42, the figure is 230 pM; as for B43, 86 pM.
Then B44, with 605 pM; and B45, with 812 pM.
